Experimental data reported in PMC8844826.
pKi: −log10 of the molar value.

Key:
[1] = biological target: full length PSD-95 (FL-PSD-95, 1-724) (human) (UniProt P78352); assay: fluorescence polarisation; competition at pH 8.4: PSD-95 (150 nM) and fluorescent tracer, increasing NA-1; apparent
[2] = biological target: full length PSD-95 (FL-PSD-95, 1-724) (human) (UniProt P78352); assay: fluorescence polarisation; competition at pH 6.4: PSD-95 (150 nM) and fluorescent tracer, increasing NA-1; apparent
[3] = biological target: full length PSD-95 (FL-PSD-95, 1-724) (human) (UniProt P78352); assay: fluorescence polarisation; competition at pH 9.4: PSD-95 (150 nM) and fluorescent tracer, increasing NA-1; apparent
[4] = biological target: full length PSD-95 (FL-PSD-95, 1-724) (human) (UniProt P78352); assay: fluorescence polarisation; competition at pH 7.4: PSD-95 (150 nM) and fluorescent tracer, increasing NA-1; apparent

full length PSD-95 (FL-PSD-95, 1-724) (human), sequence (P78352 whole entry): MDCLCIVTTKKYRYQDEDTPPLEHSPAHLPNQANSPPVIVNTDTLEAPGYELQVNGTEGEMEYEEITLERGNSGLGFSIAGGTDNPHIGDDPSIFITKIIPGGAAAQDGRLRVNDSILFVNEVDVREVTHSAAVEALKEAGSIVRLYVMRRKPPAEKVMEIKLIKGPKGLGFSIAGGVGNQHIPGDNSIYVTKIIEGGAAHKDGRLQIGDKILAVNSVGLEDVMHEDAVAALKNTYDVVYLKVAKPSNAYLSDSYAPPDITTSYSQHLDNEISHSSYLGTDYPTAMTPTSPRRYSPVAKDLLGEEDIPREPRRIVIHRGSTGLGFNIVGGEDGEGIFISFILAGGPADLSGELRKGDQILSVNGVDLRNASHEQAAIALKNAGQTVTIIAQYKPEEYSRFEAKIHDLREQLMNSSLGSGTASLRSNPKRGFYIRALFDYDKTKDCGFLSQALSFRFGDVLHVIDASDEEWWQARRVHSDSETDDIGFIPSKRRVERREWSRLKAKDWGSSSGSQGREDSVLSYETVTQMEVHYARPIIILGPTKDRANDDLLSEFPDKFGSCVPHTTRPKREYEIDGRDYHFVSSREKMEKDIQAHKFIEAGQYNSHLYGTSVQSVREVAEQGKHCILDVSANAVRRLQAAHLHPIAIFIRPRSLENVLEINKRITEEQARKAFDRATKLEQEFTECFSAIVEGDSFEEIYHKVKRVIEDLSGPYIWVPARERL

Substance: NA-1 (nerinetide): TAT peptide fused to C-terminal residues of the GluN2B NMDAR subunit
- pKi [1]: 5.59
- pKi [2]: 5.14
- pKi [3]: 5.39
- pKi [4]: 5.35
